Measured values published in publication PMC13254535, “The RecBCD complex interacts directly with the DNA sliding clamp in Escherichia coli” (Nucleic Acids Research, 2026).

Legend:
ΔrecA ΔrecB cells [1] = test: DNA degradation assay after UV ("reckless" DNA degradation); format: cell-based, Escherichia coli; conditions: expressed from pUT18C in ΔrecA ΔrecB; UV 50 J/m^2, 3 h; Hoechst 33258 microscopy
Description: (§1) IMR13 (ΔrecA) served as a positive control for RecB-mediated DNA degradation, while IMR19 (ΔrecA ΔrecB) was used as a negative control.
(§2) Overnight cultures were diluted to an OD600 of 0.01 into LB medium supplemented with appropriate antibiotics and incubated with shaking at 37°C until they reached an OD600 of 0.2. Each culture was split into two 1 ml aliquots. One aliquot was fixed immediately in ethanol (50% final concentration) to assess DNA content prior to UV exposure. The second aliquot was pelleted, resuspended in 1× PBS, and exposed to UV light at a dose of 50 J/m^2 (CL-1000 Ultraviolet crosslinker, UVP). […]
(§3) Imaging was performed on a Leica DM6000 B fluorescence microscope equipped with a 100× oil immersion objective (Leica HCX Plan Apochromat 100×, 1.40 NA, PH3 CS), a Leica EL6000 metal-halide illumination system, and a Hamamatsu C9100-14 EM-CCD camera. For each sample, six fields of view were acquired, each including both phase-contrast and fluorescence channels. Fluorescence imaging was conducted using a narrow band-pass filter set optimized for CFP (Excitation: 426–446 nm; Emission: 460–500 nm; exposure time: 30 ms). All imaging parameters—including exposure time, illumination intensity, and gain—were kept constant across all strains, treatments, and replicates to ensure quantitative comparability and minimize experimental bias. […]

[2] = system: E. coli BTH101 ∆recB strain (IMR04); test: Ciprofloxacin survival assay (complementation of BTH101 ΔrecB); format: cell-based, Escherichia coli; conditions: expressed from pUT18C in BTH101 ΔrecB; ciprofloxacin 2–16 ng/ml, 2 h, 37°C; CFU; 2 to 3 biological replicates
Description: Non-transformed BTH101 and BTH101 ∆recB served as positive and negative controls, respectively. All strains were cultured at 30°C to early exponential phase (OD600 around 0.2, measured by Nanodrop One) before treatment.
. Cultures were incubated at 37°C with shaking for 2 h. Following treatment, cells were pelleted by centrifugation and resuspended in fresh LB medium to remove residual antibiotic and halt exposure. Cultures were then serially diluted 10-fold, and 5 µl of each dilution was spotted onto LB agar plates. After overnight incubation at 30°C, CFUs were counted. […]

[3] = system: EH219 cells (GFP-β-clamp, RecB-HaloTag); conditions: unchallenged; foci within 1 pixel (0.108 µm); three biological replicates
Description: Fixed cells with endogenously tagged recB and dnaN (strain EH219) were imaged. β-clamp was N-terminally tagged with green fluorescence protein (GFP) [48]
Strains were first grown overnight on LB-agar plates with kanamycin for selection. Then, 2 ml LB with kanamycin was inoculated with five plate colonies to create overnight cultures. The next day, overnight cultures were diluted 1:200 in fresh LB medium with kanamycin and cultured at 37°C until exponential growth (OD600 of 0.10). JF549-HTL (5 µM final concentration) was then added to the culture, and incubation continued for another 60 min for staining the RecB HaloTag, before washing five times with LB. […] Samples were fixed by resuspending and incubating them in PBS with 4% (v/w) formaldehyde for 60 min, followed by washing twice with PBS and resuspension in PBS for imaging.
Briefly, we used a Nikon Eclipse Ti2-E inverted microscope equipped with a 60× oil objective, a CrestOptics X-Light V3 spinning disk confocal module (50:400 µm spinning disk), a Lumencor Celeste multi-line laser and two Teledyne Photometrics Kinetix sCMOS cameras. […] Three channels were used for fluorescence imaging: a transmitted light channel for cell outlines (1 ms exposure), in addition to GFP and JF549 fluorescence channels imaged with a 50:400 µm spinning disk. […] The foci numbers per cell were quantified along with their colocalization. […]

β-clamp [4] = target: T1, β-clamp (Escherichia coli, UniProt P0A988); conditions: 3-AT 0.5 mM; ~29 million interaction tests
Description: Yeast-two hybrid screening was outsourced to Hybrigenics (Paris, France). This service employs a high-complexity E. coli prey library (∼3 × 10^7 clones) and follows a robust mating-based screening protocol to identify binary protein interactions. Full-length E. coli dnaN (encoding β-clamp) was cloned into the Gal4 DNA-binding domain expression vector pGBKT7, which carries LEU2 and TRP1 selection markers (bait plasmid). The dnaN bait was screened against an E. coli complementary DNA/genomic prey library provided by Hybrigenics, totaling ~29 million interaction tests. Transformants were selected on medium lacking leucine, tryptophan, and histidine, supplemented with 0.5 mM of 3-amino-1,2,4-triazole (3-AT) to suppress background growth. Positive interactions were confirmed and sequenced by Hybrigenics.

ΔrecA ΔrecB cells [5] = test: Basal DNA content without UV; format: cell-based, Escherichia coli; conditions: expressed from pUT18C in ΔrecA ΔrecB; unchallenged; relative to ΔrecA ΔrecB cells
Description: as §1, §2, §3

β-clamp [6] = target: T1, β-clamp; conditions: N-terminally his-tagged RecB as bait, pBAD30, E. coli MG1655; anti-β-clamp western blot
Description: His-tagged recB was cloned into the pBAD30 plasmid (kind gift from Prof. Michael T. Laub, MIT and Howard Hughes Medical Institute, USA) by Dongxuan Gene Technology Co. and transformed into E. coli MG1655. An overnight culture was diluted 1:100 into 1 l of LB broth supplemented with ampicillin (100 µg/ml). When the culture reached an OD600 of 0.5, expression was induced with 0.4% (w/v) L-arabinose. After 2 h of induction at 37°C, cells were harvested by centrifugation (4000 x g, 10 min), washed with Phosphate buffered saline (PBS), and crosslinked with 1% formaldehyde for 20 min at room temperature. Crosslinking was quenched by the addition of glycine to a final concentration of 2.5 M. The cell pellets were washed three times with PBS, flash-frozen in liquid nitrogen, and stored at −80°C.
For lysis, cell pellets were resuspended in 10 ml of lysis buffer (50 mM Tris–HCl, pH 8.0; 500 mM NaCl; 10 mM β-mercaptoethanol; 1 mg/ml lysozyme) and subjected to sonication in 3 × 15-s pulses (Vibra cell, Sonics & Materials, Inc., Newtown, CT, USA). […]
After incubation for 30 min at 4°C with gentle rotation, beads were washed four times with wash buffer (50 mM sodium phosphate, pH 8.0; 300 mM NaCl; 0.01% (v/w) Tween-20). […] Beads were removed magnetically, and eluates were analyzed by SDS–polyacrylamide gel electrophoresis (PAGE). […]

T1 sequence (P0A988 whole entry): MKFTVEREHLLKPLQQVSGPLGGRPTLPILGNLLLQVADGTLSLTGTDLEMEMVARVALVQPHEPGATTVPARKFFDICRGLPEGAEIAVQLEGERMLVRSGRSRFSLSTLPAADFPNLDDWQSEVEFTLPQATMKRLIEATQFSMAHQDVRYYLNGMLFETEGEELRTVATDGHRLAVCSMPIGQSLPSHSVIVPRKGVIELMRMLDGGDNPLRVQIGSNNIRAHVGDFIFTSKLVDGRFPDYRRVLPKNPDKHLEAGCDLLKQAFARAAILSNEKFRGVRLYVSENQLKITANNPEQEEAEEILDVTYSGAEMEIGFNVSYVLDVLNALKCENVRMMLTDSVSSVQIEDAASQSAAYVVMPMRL

B1: RecB: wild type RecB subunit of the E. coli RecBCD complex (T18 fusion, his-tagged or HaloTag according to test) (protein)
chain: MSDVAETLDPLRLPLQGERLIEASAGTGKTFTIAALYLRLLLGLGGSAAFPRPLTVEELLVVTFTEAATAELRGRIRSNIHELRIACLRETTDNPLYERLLEEIDDKAQAAQWLLLAERQMDEAAVFTIHGFCQRMLNLNAFESGMLFEQQLIEDESLLRYQACADFWRRHCYPLPREIAQVVFETWKGPQALLRDINRYLQGEAPVIKAPPPDDETLASRHAQIVARIDTVKQQWRDAVGELDALIESSGIDRRKFNRSNQAKWIDKISAWAEEETNSYQLPESLEKFSQRFLEDRTKAGGETPRHPLFEAIDQLLAEPLSIRDLVITRALAEIRETVAREKRRRGELGFDDMLSRLDSALRSESGEVLAAAIRTRFPVAMIDEFQDTDPQQYRIFRRIWHHQPETALLLIGDPKQAIYAFRGADIFTYMKARSEVHAHYTLDTNWRSAPGMVNSVNKLFSQTDDAFMFREIPFIPVKSAGKNQALRFVFKGETQPAMKMWLMEGESCGVGDYQSTMAQVCAAQIRDWLQAGQRGEALLMNGDDARPVRASDISVLVRSRQEAAQVRDALTLLEIPSVYLSNRDSVFETLEAQEMLWLLQAVMTPERENTLRSALATSMMGLNALDIETLNNDEHAWDVVVEEFDGYRQIWRKRGVMPMLRALMSARNIAENLLATAGGERRLTDILHISELLQEAGTQLESEHALVRWLSQHILEPDSNASSQQMRLESDKHLVQIVTIHKSKGLEYPLVWLPFITNFRVQEQAFYHDRHSFEAVLDLNAAPESVDLAEAERLAEDLRLLYVALTRSVWHCSLGVAPLVRRRGDKKGDTDVHQSALGRLLQKGEPQDAAGLRTCIEALCDDDIAWQTAQTGDNQPWQVNDVSTAELNAKTLQRLPGDNWRVTSYSGLQQRGHGIAQDLMPRLDVDAAGVASVVEEPTLTPHQFPRGASPGTFLHSLFEDLDFTQPVDPNWVREKLELGGFESQWEPVLTEWITAVLQAPLNETGVSLSQLSARNKQVEMEFYLPISEPLIASQLDTLIRQFDPLSAGCPPLEFMQVRGMLKGFIDLVFRHEGRYYLLDYKSNWLGEDSSAYTQQAMAAAMQAHRYDLQYQLYTLALHRYLRHRIADYDYEHHFGGVIYLFLRGVDKEHPQQGIYTTRPNAGLIALMDEMFAGMTLEEA
modifications: left off: T18 (Bordetella pertussis CyaA fragment), N-terminal, kept
- reckless DNA degradation after UV (ΔrecA ΔrecB cells [1]): restored the reckless degradation phenotype, comparable to that of the ΔrecA strain
- survival after ciprofloxacin [2]: fully restores ΔrecB strain survival to the wild-type strain (BTH101) level
- cells showing RecB–β-clamp colocalization [3]: around 32%
- yeast two-hybrid interaction with β-clamp (β-clamp [4]): possible interaction
- basal degradation (ΔrecA ΔrecB cells [5]): ~50%
- pull-down of β-clamp (β-clamp [6]): β-clamp was pulled down and exhibited a strong band on the membrane
